Data taken from paper PMC4383704 (Cancer research, 2015).

Target: mouse uPA (Mus musculus, UniProt P06869)
Test: ELISA

Sequence of mouse uPA (P06869 21-433): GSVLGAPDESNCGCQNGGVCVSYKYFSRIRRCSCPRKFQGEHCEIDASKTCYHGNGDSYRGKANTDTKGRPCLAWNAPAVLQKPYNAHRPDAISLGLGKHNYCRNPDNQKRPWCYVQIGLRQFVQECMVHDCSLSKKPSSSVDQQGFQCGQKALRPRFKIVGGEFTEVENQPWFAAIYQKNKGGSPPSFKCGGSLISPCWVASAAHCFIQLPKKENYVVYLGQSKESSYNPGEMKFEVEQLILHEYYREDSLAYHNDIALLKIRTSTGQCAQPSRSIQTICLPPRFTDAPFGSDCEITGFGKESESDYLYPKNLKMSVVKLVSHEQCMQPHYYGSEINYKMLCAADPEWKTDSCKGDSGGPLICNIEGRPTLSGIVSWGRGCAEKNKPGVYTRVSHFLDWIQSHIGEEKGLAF

B1: U33 Fab (Fab, V domains shown)
VH: EVQLVQSGGGLVKPGRSLRLSCTASGFTFGDYAMSWVRQAPGKGLEWVGFIRSKAYGGTTEYAAVKGRFTISRDDSKSIAYLQMNSLKTEDTAVYYCIRGANWNWGQGTLVTVSS
VL: EIVLTQSPLSLPVTPGEPASISCRSSQTLMNRNGNNFLDWYLQKPGQSPQLLIYLGSNRAPGVPDRFSGSGSGTDFTLKISRVEAEDVGVYYCMQRIEFPYTFGQGTKLEIK
  binding result: no binding (tested: 1 μM)
